Assay results from PMC12728192, “The dynamic lateral gate of the mitochondrial β-barrel biogenesis machinery is blocked by darobactin A” (Nature Communications, 2025).
Several values for one entry are separate records, joined by “and”; a condition that tells them apart may be missing. Equal values may be shown once. Read-outs that look alike come from different tables or passages of the source.

Tests used:
[1] = target: Thermothelomyces thermophilus SAM complex (sorting and assembly machinery complex; Sam50:Sam35:Sam37, monomer) (Thermothelomyces thermophilus); experiment: MST; SAM complex labelled with Monolith RED-tris-NTA 2nd Generation, constant at 25 nM; serial dilution of peptide; size exclusion buffer (20 mM HEPES pH 8.0, 150 mM NaCl, 0.02% GDN); Monolith NT.115, premium capillaries
[2] = target: Thermothelomyces thermophilus SAM complex (10xHis-TEV-Sam50, Sam35 (no tag), TwinStrep-TEV-GG-Sam37) (Thermothelomyces thermophilus); experiment: MST; SAM complex labelled with Monolith RED-tris-NTA 2nd Generation, constant at 25 nM; serial dilution of peptide; size-exclusion buffer (20 mM HEPES pH 8.0, 150 mM NaCl, 0.02% GDN); Monolith NT.115, premium capillaries; MO.Affinity Analysis; one Kd for each biological replicate from 2-3 technical replicates

darobactin A (peptide)
Kd [1]: 0.296 µM and 0.0956 to 0.377 µM | Kd ([2]; mean of biological replicates): 0.228 µM

linear darobactin (peptide)
Kd [1]: 490 to 1200 µM | Kd [2]: > 1170 µM
